Each block holds one molecule with its values, some of them ahead of it.
What was measured:
[1] = molecular target: long-form human leptin receptor, OB-Rb (human) (UniProt P48357); assay: binding of labelled leptin to HEK293 cells stably transfected with human OB-Rb
rat C-reactive protein = molecular target: T1, rat C-reactive protein (rat, UniProt P48199 20-230); assay: immunoprecipitation with anti-mouse leptin, western blot with anti-CRP
T1 construct: also called rat CRP; rat SLIP-1
T1 sequence (looked up): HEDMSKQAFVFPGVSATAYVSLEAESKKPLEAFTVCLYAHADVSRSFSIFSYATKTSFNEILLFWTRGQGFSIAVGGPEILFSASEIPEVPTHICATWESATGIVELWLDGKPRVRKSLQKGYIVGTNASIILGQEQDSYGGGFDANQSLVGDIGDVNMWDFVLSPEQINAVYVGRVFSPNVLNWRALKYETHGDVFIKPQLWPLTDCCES

[2] = molecular target: T2, human leptin (SEQ ID NO:4) (human, UniProt P41159 22-167); assay: derived from the IC50 of CRP against 125I-human leptin binding to OB-Rb HEK293 cells
T2 construct: Recombinant human leptin; also called recombinant human leptin
Protocol: (§1) 4. […] After 10 minute incubation at room temperature, the reaction was stopped with 100 μl 0.1% trifluoroacetic acid (TFA). The reaction mixture was immediately purified by reverse-phase HPLC. The separation employed a 5 minute isocratic step at 20% eluant B in A, followed by two consecutive 30 minute linear gradients from 20 to 50%, then from 50 to 60% eluant B in A (where eluant A is water containing 0. 1% TFA and eluant B is acetonitrile containing 0.1% TFA) at a flow rate of 1.5 ml/min. […] The incubation would last for 3 hours at 4° C. before the media was aspirated and the cells were dissolved in 0.1N NaOH for scintillation counting.

[3] = molecular target: T3, mouse leptin (mouse), P41160; assay: human CRP against mouse leptin (~2 ng/ml) binding to OB-Rb HEK293 cells (FIG. 3G); settings: remark: other sources report otherwise
T3 chain: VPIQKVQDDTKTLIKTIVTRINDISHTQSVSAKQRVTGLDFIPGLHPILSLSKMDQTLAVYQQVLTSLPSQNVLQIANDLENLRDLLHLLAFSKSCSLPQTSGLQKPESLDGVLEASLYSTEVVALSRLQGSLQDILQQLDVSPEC

[4] = molecular target: T2, human leptin (SEQ ID NO:4); assay: human CRP pre-incubated with 125I-human leptin (~2 ng/ml); inhibition of leptin binding to OB-Rb HEK293 cells, scintillation counting
Protocol: as §1

Chain of long-form human leptin receptor, OB-Rb (human) (P48357 22-1165): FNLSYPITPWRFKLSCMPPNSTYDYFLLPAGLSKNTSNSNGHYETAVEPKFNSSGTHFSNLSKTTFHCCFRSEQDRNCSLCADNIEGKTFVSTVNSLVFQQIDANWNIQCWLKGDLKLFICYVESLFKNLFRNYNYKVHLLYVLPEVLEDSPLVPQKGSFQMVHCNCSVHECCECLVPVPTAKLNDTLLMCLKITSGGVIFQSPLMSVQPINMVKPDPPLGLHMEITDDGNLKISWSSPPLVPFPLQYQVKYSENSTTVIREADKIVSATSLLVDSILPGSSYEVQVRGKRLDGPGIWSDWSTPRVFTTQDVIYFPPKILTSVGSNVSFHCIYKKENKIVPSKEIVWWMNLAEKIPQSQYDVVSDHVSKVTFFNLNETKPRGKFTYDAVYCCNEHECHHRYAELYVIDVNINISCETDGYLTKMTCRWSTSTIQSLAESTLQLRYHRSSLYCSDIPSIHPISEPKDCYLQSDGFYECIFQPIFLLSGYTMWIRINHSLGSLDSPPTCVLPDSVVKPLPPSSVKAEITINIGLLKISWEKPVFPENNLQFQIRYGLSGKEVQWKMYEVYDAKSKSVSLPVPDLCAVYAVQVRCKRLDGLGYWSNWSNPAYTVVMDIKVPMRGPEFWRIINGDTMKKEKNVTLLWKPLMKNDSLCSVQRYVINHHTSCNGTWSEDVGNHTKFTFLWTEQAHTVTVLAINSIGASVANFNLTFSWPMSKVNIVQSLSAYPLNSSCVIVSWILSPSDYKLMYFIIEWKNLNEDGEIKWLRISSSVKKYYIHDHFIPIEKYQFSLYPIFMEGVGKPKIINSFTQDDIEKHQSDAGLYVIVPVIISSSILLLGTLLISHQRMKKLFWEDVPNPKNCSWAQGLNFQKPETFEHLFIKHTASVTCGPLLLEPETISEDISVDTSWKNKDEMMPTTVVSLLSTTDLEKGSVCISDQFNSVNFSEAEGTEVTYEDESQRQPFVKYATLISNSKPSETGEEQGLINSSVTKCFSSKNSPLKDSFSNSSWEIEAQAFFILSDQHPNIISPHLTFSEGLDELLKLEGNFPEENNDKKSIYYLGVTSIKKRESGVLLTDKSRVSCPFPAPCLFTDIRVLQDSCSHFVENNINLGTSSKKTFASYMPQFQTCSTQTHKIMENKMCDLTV

Kd [1]: 1 nM
Molecule: human leptin (SEQ ID NO:4) (from UniProt P41159 22-167) (ligand)

binding result (rat C-reactive protein): binds
B1: mouse leptin (ligand, UniProt P41160 22-167, looked up)
chain: T3 chain
notes: Recombinant; also called recombinant mouse leptin; murine leptin

molecular ratio CRP:leptin at the IC50 [2]: 5.8 CRP:leptin (molar, CRP pentamer)
IC50 [3]: > 64 µg/mL
IC50 [4]: ~0.08 µg/mL
B2: human C-reactive protein (other, UniProt P02741 19-224, looked up)
chain: QTDMSRKAFVFPKESDTSYVSLKAPLTKPLKAFTVCLHFYTELSSTRGYSIFSYATKRQDNEILIFWSKDIGYSFTVGGSEILFEVPEVTVAPVHICTSWESASGIVEFWVDGKPRVRKSLKKGYTVGAEASIILGQEQDSFGGNFEGSQSLVGDIGNVNMWDFVLSPDEINTIYLGGPFSPNVLNWRALKYEVQGEVFTKPQLWP
notes: Human SLIP-1 from the leptin column was identified as human CRP; also called human CRP; CRP

Reference: patent US20060206948A1 (UNIVERSITY OF PITTSBURGH OF THE COMMONWEALTH SYSTEM OF …, published 2006)
